Experimental data: patent US20200030378A1

B1: w876 clonotype 13 TCR (TCR)
TCR alpha: CVVTDTSGGGADGLTF
TCR beta: CASSLAGLAGTDTQYF
B2: w876 clonotype 8 TCR (TCR)
TCR alpha: CVVYASKIIF
TCR beta: CASSDTPDLNTEAFF
B3: w830 clonotype 3 TCR (TCR)
TCR alpha: CAYPSTDKLIF
TCR beta: CASSILGASNQPQHF
B4: w876 clonotype 14 TCR (TCR)
TCR alpha: CVVPSAGKSTF
TCR beta: CASSEFAGQETQYF

Biological target: MCPyV KLL epitope presented by HLA-A*02:01 on cells (human; Merkel cell polyomavirus), A*02:0
Assay: cell-based or functional assay

Binder	EC50 (ng/uL DNA), IFN-γ secretion, COS-7 + HLA-A*02:01 + tLTAg plasmid [ng/µL DNA]
B1	3.9
B2	4.2
B3	270
B4	5.4
